Source: patent publication US20160024208A1 (Regeneron, published 2016)

Key:
[1] = target: T1, N-Term Biotin Nav1.7 (3-1) peptide, mouse (mouse, not fully specified; N-terminal biotin attached via a G4S linker); experiment: SPR, captured antibody, peptide analyte
T1 construct: Synthetic peptide; also called Mouse Nav1.7 3-1 N-term biotin
T1 peptide: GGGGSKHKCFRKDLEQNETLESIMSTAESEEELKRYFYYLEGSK
Experimental: (§1) The binding affinities of anti-Naᵥ 1.7 antibodies to Naᵥ 1.7 loop peptides were determined by Biacore. For monovalent kinetic experiments, antibodies were captured through the Fc region via a goat anti-Fc-coupled biosensor surface, and the peptides (as analyte) were injected over this captured antibody surface. For bivalent (avidity-driven) kinetic experiments, biotinylated peptides corresponding to the Naᵥ 1.7 3-1, 3-3, or paddle loop sequences were captured on a NeutrAvidin sensor surface, and anti-Naᵥ 1.7 antibodies (as analyte) were injected over this surface. Following the capture step, each analyte was individually injected at several concentrations over its respective capture surface, and changes in bound surface units (RU) were monitored. The dissociation rate is independent of the concentration of analyte used in the experiment, and the dissociation rate constant (kd) was determined from the change in antibody-bound analyte RU over time. The Biacore kinetic data were obtained using a double referencing procedure. The double referencing was conducted by first subtracting any interaction of the analyte over the reference surface (i.e., the anti-Fc coupled surface alone or the NeutrAvidin surface alone), thereby correcting for nonspecific binding to capture surface and for refractive index changes. Control buffer injections (no analyte) over the antibody- or peptide-captured surfaces were also performed to allow subtraction of RU signal changes resulting from the natural dissociation of captured binding partner from the sensor surface. The kinetic parameters were obtained by globally fitting the data for all concentrations tested for a given peptide or antibody to a 1:1 binding model using Biacore T100 Evaluation Software version 2.0.2. The KD was calculated as the dissociation rate constant divided by the association rate constant (KD=kd/kₐ). The dissociative half-life (t_{1/2}) was calculated from the dissociation rate constant (t_{1/2}=In2/kd).

[2] = target: T2, Native Nav1.7 (3-1) peptide, rat (rat); experiment: SPR, captured antibody, peptide analyte
T2 construct: Synthetic peptide; also called Rat Nav1.7 3-1 native
T2 peptide: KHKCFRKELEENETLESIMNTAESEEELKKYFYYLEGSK
Experimental: as §1

[3] = target: full-length human Nav1.7 fused at its N-terminus to GFP, expressed in HEK293 cells (human, UniProt Q15858 1-1988); experiment: cell-based or functional assay
[4] = target: T3, N-Term Biotin Nav1.7 (3-1) peptide, mulatta (mulatta (monkey), not fully specified; N-terminal biotin attached via a G4S linker); experiment: SPR, captured antibody, peptide analyte
T3 construct: Synthetic peptide; also called Mulatta Nav1.7 3-1 N-term biotin; monkey
T3 peptide: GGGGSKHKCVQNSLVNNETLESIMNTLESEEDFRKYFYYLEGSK
Experimental: as §1

[5] = target: T4, Native Nav1.7 (3-1) peptide, human (human); experiment: SPR, captured antibody, peptide analyte
T4 construct: Synthetic peptide (Celtek), unbiotinylated; also called Human Nav1.7 3-1 native; Nav1.7 3-1 native peptide
T4 peptide: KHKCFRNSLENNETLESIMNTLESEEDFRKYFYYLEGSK
Experimental: as §1

[6] = target: T5, C-term Biotin Nav1.7 (3-1) peptide, human (human, not fully specified; C-terminal biotin attached via a G4S linker); experiment: SPR, captured biotin-peptide, antibody analyte
T5 construct: Synthetic peptide; also called Human Nav1.7 3-1 C-term biotin
T5 peptide: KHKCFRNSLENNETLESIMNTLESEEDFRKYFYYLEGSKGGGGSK
Experimental: as §1

[7] = target: T2, Native Nav1.7 (3-1) peptide, rat; experiment: ELISA on coated peptide, antibody 1 ug/ml, OD450 grade
Experimental: (§2) Anti-Naᵥ 1.7 antibodies were tested for their ability to bind to the Naᵥ 1.7 peptides. The various peptides were coated overnight onto 96-well Nunc Immunosorp plates at a concentration of 4 μg/mL in PBS, followed by blocking for 1 hour in a suitable blocking agent. For biotinylated peptides, avidin was first coated on Nunc Immunosorp plates at 2 μg/mL in PBS overnight, followed by blocking as described, and the plate was then coated with biotinylated peptides at a concentration of 0.4 μg/mL and incubated for 1 hour at room temperature. Purified anti-Naᵥ 1.7 antibodies were diluted to a final concentration of 0.1 μg/mL and 1.0 μg/mL and added to the wells of the coated microtiter plates followed by incubation for 1 hour at room temperature. Bound antibodies were detected with horseradish peroxidase (HRP) conjugated anti-mouse or anti-human IgG (Jackson Immuno Research Lab, West Grove, Pa.) depending on the antibody species and developed by colorimetric response using tetramethylbenzidine (TMB) substrate (BD Biosciences). Absorbance was read at OD₄₅₀ on a plate reader for 0.1 second.
(§3) Values in Table 11 represent absolute binding ranges (at OD450) to plate-coated peptides for antibodies added at 1 μg/ml as follows: OD450<0.2: −; 0.2<OD450<1: +; 1<OD450<2: ++; 2<OD450<4: +++; NT: Not Tested.

[8] = target: T6, N-Term Biotin-Nav1.7 (3-1) peptide, human (human, not fully specified; N-terminal biotin attached via a G4S linker); experiment: as above
T6 construct: ELISA peptide
T6 peptide: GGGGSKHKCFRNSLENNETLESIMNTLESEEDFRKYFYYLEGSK
Experimental: as §2, §3

[9] = target: T3, N-Term Biotin Nav1.7 (3-1) peptide, …; experiment: as above
Experimental: as §2, §3

B1: H1H1025B (antibody, V domains shown)
VH: QVQLVESGGGVVQPGRSLRLSCAASGFTFSNYGMHWVRQAPGKGLEWVAAIWFDGSNKKYVDSVKGRFTISRDNSKNTLYLQMNSLRAGDTAVYYCTRDRSGSFDYWGQGTLVTVSS
VL: DIQLTQSPSSLSASVGDRVTITCRASQGIRNDLGWYQQKPGKAPKRLIYAASSLQSGVPSRFSGSGSGTEFTLTISSLQPEDFATYYCLQHNSYPCTFGQGTKVEIKR
notes: Fully human antibody; 722/724 at r244); the full pair is used
B1: no binding [1]; no binding [2].

B2: H4H434B (antibody, V domains shown)
VH: QVQLVQSGGGLVQPGGSLRLSCAASGFTFSNYAMSWVRQAPGKGLEWVSAISGSGDNTYYADSVRGRFTISRDNSKNTLYLQMNSLRAEDTAIYYCAKDPHSSRWPGFFDLWGRGTLVTVSS
VL: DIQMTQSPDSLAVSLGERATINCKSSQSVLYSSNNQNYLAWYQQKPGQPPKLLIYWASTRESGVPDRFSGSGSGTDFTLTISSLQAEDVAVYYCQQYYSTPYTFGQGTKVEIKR
notes: Fully human antibody
For B2, the “Current blocking (Average % inhibition), IonWorks Quattro, 223 nM antibody” value (shortened to “Current blocking (Average % inhibition)”) [3] was 17.5%, the Kd [1] was 8.98 nM and the t1/2 [1] was 3.4 min. The Kd [4] was 3.68 nM, the t1/2 [4] was 4.7 min and the Kd [5] was 21.4 nM. The t1/2 [5] was 2.5 min, the Kd [2] was 107 nM and the t1/2 [2] was 0.17 min. For the same binder, the Kd [6] was 0.334 nM and the t1/2 [6] was 114 min.

B3: H1H1068B (antibody, V domains shown)
VH: QVQLVQSGAEVKKPGASVKVSCKASGYTFTSYGVSWVRQAPGQGLEWMGWISAYNGNTNYAQKLQGRVTMTTDTSTSTAYMELTSLRSDDTAVYYCARNWGDYWGQGTLVTVSS
VL: not shown
notes: Fully human antibody; the full pair is used
With B3 the “Current blocking (Average % inhibition)” value [3] was 34%, the Kd [4] was 42.6 nM and the t1/2 [4] was 0.34 min. It also gave a Kd [5] of 236 nM, a t1/2 [5] of 0.16 min and a Kd [6] of 200 nM. The t1/2 [6] was 0.3 min.

B4: H4H395B (antibody, V domains shown)
VH: EVQLVESGGGLVQPGGSLRLSCAASGFTFSSYGMSWVRQVPGKGLEWVSAISGSGGSTYYVDSVKGRFTISRDNFKNTLYLQMNSLRVEDTAVYYCAKDVGYCSTTSCRGDAFDVWGQGTMVTVSS
VL: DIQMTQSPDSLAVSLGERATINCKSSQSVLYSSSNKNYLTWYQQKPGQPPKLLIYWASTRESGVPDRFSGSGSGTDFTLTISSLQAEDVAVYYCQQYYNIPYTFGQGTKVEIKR
notes: Fully human antibody; 685/687 at r237); the full pair is used; also called H4H395N
For B4, the “Current blocking (Average % inhibition)” value [3] was 57%, the Kd [4] was 2.5 nM and the t1/2 [4] was 34 min. For the same binder, the Kd [5] was 13.2 nM, the t1/2 [5] was 20.7 min and the binding result [2] was “no binding”. It also gave a Kd [6] of 0.0252 nM and a t1/2 [6] of 108 min.

B5: H4H438B (antibody, V domains shown)
VH: QVQLQQWGAGLLTPSETLSLTCAVYGGSFSGHYWSWIRQPPGKGLEWIGEINPRGSTNYKPSLKSRVTISVDTSKNQFSLNLRSVTAADTAMYYCAREGNLAARLWFFDLWGRGTLVTVSS
VL: DIQMTQSPSSLSASVGDRGTITCRTSQSIRSYLNWYQQKPGKAPKLLIYAASSLQSGVPSRFSGSGSGTDFTLTISSLQPEDFATYFCQQSYSSPFTFGQGTKVEIKR
notes: Fully human antibody
For B5, the “Current blocking (Average % inhibition)” value [3] was 43.5%, the binding result [1] was “no binding” and the Kd [4] was 0.54 nM. It also gave a t1/2 [4] of 111 min, a Kd [5] of 2.73 nM and a t1/2 [5] of 30.2 min. The Kd [2] was 77 nM, the t1/2 [2] was 0.56 min and the Kd [6] was 0.614 nM. It also gave a t1/2 [6] of 118 min.

B6: H4H441B (antibody, V domains shown)
VH: QVQLQQWGAGLLKPSETLSLTCAVYGGSFSGHYWTWIRQPPGKGLEWIGEINHRGNTNYNPSLKSRATISVDTSKNQFSLKLSSVTAADTAVYYCAREGSLAARLWFFDLWGRDTPVTVSS
VL: DIQMTQSPSSLSASVGDRGTVTCRASQNIRTYLNWYQQKPGKAPKLLIYAASSLQSGVPSRFSGSGSGTDFTLTISSLQPEDFATYYCQQSYGTPYTFGQGTKVEIKR
notes: as for B3
For B6, the binding result [1] was “no binding”, the Kd [4] was 0.439 nM and the t1/2 [4] was 128 min. The Kd [5] was 6.58 nM, the t1/2 [5] was 12.5 min and the Kd [2] was 178 nM. It also gave a t1/2 [2] of 0.39 min, a Kd [6] of 0.703 nM and a t1/2 [6] of 86.9 min.

B7: H4H443B (antibody, V domains shown)
VH: QVQLVESGGGLVQPGRSLRLSCAASGFTFDDYAMHWVRQVPGKGLEWVSGINWNSGSIGYADSVKGRFTISRDNAKNSLFLQMNSLRAEDTALYYCAKDIEYYDILTGYYSYYIMDVWGQGTTVTVSS
VL: DIQMTQSPSFLSASVGDRVTITCWASQGISSYLAWYQQKPGKAPKLLIYASSTLQSGVPSRFSGSGSGTEFTLTISSLQPEDFATYYCQQFNSYPPTFGQGTKVEIKR
For B7, the OD450 [7] was 1 to 2 od, the Kd [2] was 176 nM and the t1/2 [2] was 0.48 min.

B8: H4H385B (antibody, V domains shown)
VH: QVQLVESGGGVVQPGRSLRLSCAASGFTFSSYGMHWVRQAPGKGLEWVALISYVGSNKHYADSVKGRFTISRDNSKNTLYLQMNSLRAEDTAVYYCAKSRGYSYGLDYWGQGTLVTVSS
VL: DIQMTQSPDSLAVSLGERATINCKSSQTVLHSSNNQNNLVWYQQKPGQPPKLLIYWASTRESGVPDRFSGSGSGTDFTLTISSLQAEDVAIYYCQQYYSTPYTFGQGTKLEIKR
notes: Fully human antibody
With B8 the “Current blocking (Average % inhibition)” value [3] was 31%, the binding result [1] was “no binding” and the Kd [4] was 29.3 nM. For the same binder, the t1/2 [4] was 3.1 min, the Kd [5] was 188 nM and the t1/2 [5] was 0.8 min. For the same binder, the binding result [2] was “no binding”, the Kd [6] was 0.443 nM and the t1/2 [6] was 73.2 min.

B9: H4H391B (antibody, V domains shown)
VH: QVQLVQSGGGVVQPGRSLRLSCAASGFTFSSYGMHWVRQAPGKGLEWVAVISYEGSNKHYADSVKGRFTISRDNSKNTLYLQMNSLRAEDTAVFYCAQSRGYSYGLGYWGQGTLVTVSS
VL: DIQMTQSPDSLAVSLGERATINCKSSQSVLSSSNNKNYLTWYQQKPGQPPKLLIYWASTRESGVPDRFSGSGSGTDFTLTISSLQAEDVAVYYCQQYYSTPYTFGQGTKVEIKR
For B9, the “Current blocking (Average % inhibition)” value [3] was 48%, the OD450 [8] was 2 to 4 od and the OD450 [9] was 2 to 4 od.

B10: H4H382B (antibody, V domains shown)
VH: EVQLVQSGGGVVQPGRSLRLSCEASGFTFSSYGMHWVRQAPGKGLEWVAVISYDGSNKHYTDSVKGRFTISRDNSKNTLYLQMNSLRAEDTAVYFCAQSRGYSYGLGYWGQGTLVTVSS
VL: DIQMTQSPDSLAVSLGERATINCKSSQSVLSSSNNENYLVWYQQKPGQPPKLLIYWASTREPGVPDRFSGGGSGTDFTLTISSLQAEDVAVYYCQQYHSIPYTFGQGTKVEIKR
B10 was tested, and the OD450 [8] was 2 to 4 od, the OD450 [9] was 2 to 4 od and the Kd [4] was 13.1 nM. The t1/2 [4] was 6 min, the Kd [5] was 38.9 nM and the t1/2 [5] was 3.3 min. The Kd [6] was 1.04 nM and the t1/2 [6] was 92.9 min.

B11: H4H368B (antibody, V domains shown)
VH: EVQLVQSGGGVVQPGRSLRLSCAASGFTFSSYGMHWVRQAPGKGLEWVAVISYQESNKHYVDSVKGRFTISRDNSKNTLYLQMNSLRAEDTAVYYCAKSRGYSYGLGYWGQGTLVTVSS
VL: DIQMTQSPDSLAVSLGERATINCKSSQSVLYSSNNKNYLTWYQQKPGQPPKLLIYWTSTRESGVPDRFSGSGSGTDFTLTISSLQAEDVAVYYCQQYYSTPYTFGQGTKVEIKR
B11 gave an OD450 [7] of 2 to 4 od, a Kd [1] of 12 nM and a t1/2 [1] of 964 min. It also gave a Kd [2] of 127 nM and a t1/2 [2] of 0.32 min.
